From the supplement of paper PMC11246515
± gives the standard deviation of the averaged measurements.

Assay: total protein half-life in vivo (active degradation + dilution); higher = more stable protein
[1] = E. coli NCM3722 delta-clpP delta-lon delta-hslV, growth: N-lim chemostat, doubling time 6 h
[2] = wild type E. coli NCM3722, growth: C-lim chemostat, doubling time 3 h
[3] = wild type E. coli NCM3722, growth: C-lim chemostat, doubling time 12 h
[4] = E. coli NCM3722 delta-clpP, growth: N-lim chemostat, doubling time 6 h
[5] = E. coli NCM3722 delta-hslV, growth: N-lim chemostat, doubling time 6 h
[6] = E. coli NCM3722 delta-lon, growth: N-lim chemostat, doubling time 6 h
[7] = E. coli NCM3722 delta-smpB, growth: N-lim chemostat, doubling time 6 h
[8] = wild type E. coli NCM3722, growth: C-lim chemostat, doubling time 6 h
[9] = wild type E. coli NCM3722, growth: N-lim chemostat, doubling time 6 h
[10] = wild type E. coli NCM3722, growth: N-lim chemostat, doubling time 12 h
[11] = wild type E. coli NCM3722, growth: P-lim chemostat, doubling time 6 h
[12] = wild type E. coli NCM3722, growth: P-lim chemostat, doubling time 12 h

Row | Sequence | total protein half-life in vivo [1] | total protein half-life in vivo [2] | total protein half-life in vivo [3] | total protein half-life in vivo [4] | total protein half-life in vivo [5] | total protein half-life in vivo [6] | total protein half-life in vivo [7] | total protein half-life in vivo [8] | total protein half-life in vivo [9] | total protein half-life in vivo [10] | total protein half-life in vivo [11] | total protein half-life in vivo [12]
1 | MMTKTQINKLIKMMNDLDYPFEAPLKESFIESIIQIEFNSNSTNCLEKLCNEVSILFKNQPDYLTFLRAMDGFEVNGLRLFSLSIPEPSVKNLFAVNEFYRNNDDFINPDLQERLVIGDYSISIFTYDIKGDAANLLI | 4.14 h |  |  |  |  |  |  |  |  |  |  | 
2 | MMVQHLKRRPLSRYLKDFKHSQTHCAHCRKLLDRITLVRDGKIVNKIEISRLDTLLDENGWQTEQKSWAALCRFCGDLHCKTQSDFFDIIGFKQFLFEQTEMSPGTVREYVVRLRRLGNHLHEQNISLDQLQDGFLDEILAPWLPTTSTNNYRIALRKYQHYQRQTCTRLVQKSSSLPSSDIY | 6.005 ± 0.037 h | 0.828 ± 0.34 h | 1.23 h |  |  |  |  |  |  |  |  | 
3 | MMYRIRNWLVATLLLLCTPVGAATLSDIQVSNGNQQARITLSFIGDPDYAFSHQSKRTVALDIKQTGVIQGLPLLFSGNNLVKAIRSGTPKDAQTLRLVVDLTENGKTEAVKRQNGSNYTVVFTINADVPPPPPPPPVVAKRVETPAVVAPRVSEPARNPFKTESNRTTGVISSNTVTRPAARATANTGDKIIIAIDAGHGGQDPGAIGPGGTREKNVTIAIARKLRTLLNDDPMFKGVLTRDGDYFISVMGRSDVARKQNANFLVSIHADAAPNRSATGASVWVLSNRRANSEMASWLEQHEKQSELLGGAGDVLANSQSDPYLSQAVLDLQFGHSQRVGYDVATSMISQLQRIGEIHKRRPEHASLGVLRSPDIPSVLVETGFISNNSEERLLASDDYQQQLAEAIYKGLRNYFLAHPMQSAPQGATAQTASTVTTPDRTLPN | 2.15 ± 0.036 h | 1.64 ± 0.18 h | 4.87 ± 1.5 h | 2.05 ± 0.41 h | 2.71 ± 1.6 h | 1.97 ± 0.085 h | 1.74 ± 0.34 h | 2.63 ± 0.23 h | 2.54 ± 0.74 h | 2.65 ± 0.31 h | 3.4 ± 3.2 h | 2.92 ± 1.1 h
4 | MNAKIIASLAFTSMFSLSTLLSPAHAEEQEKALNFGIISTESQQNLKPQWTPFLQDMEKKLGVKVNAFFAPDYAGIIQGMRFNKVDIAWYGNLSAMEAVDRANGQVFAQTVAADGSPGYWSVLIVNKDSPINNLNDLLAKRKDLTFGNGDPNSTSGFLVPGYYVFAKNNISASDFKRTVNAGHETNALAVANKQVDVATNNTENLDKLKTSAPEKLKELKVIWKSPLIPGDPIVWRKNLSETTKDKIYDFFMNYGKTPEEKAVLERLGWAPFRASSDLQLVPIRQLALFKEMQGVKSNKGLNEQDKLAKTTEIQAQLDDLDRLNNALSAMSSVSKAVQ |  |  |  |  |  |  |  |  |  |  | 1.02 ± 0.21 h | 2.63 ± 1.1 h
5 | MNAPFTYSSPTLSVEALKHSIAYKLMFTIGKDPVVANKHEWLNATLFAVRDRLVERWLRSNRAQLSQETRQVYYLSMEFLIGRTLSNAMLSLGIYEDVQGALEAMGLNLEELIDEENDPGLGNGGLGRLAACFLDSLATLGLPGRGYGIRYDYGMFKQNIVNGSQKESPDYWLEYGNPWEFKRHNTRYKVRFGGRIQQEGKKTRWIETEEILGVAYDQIIPGYDTDATNTLRLWSAQASSEINLGKFNQGDYFAAVEDKNHSENVSRVLYPDDSTYSGRELRLRQEYFLVSSTIQDILSRHYQLHKTYDNLADKIAIHLNDTHPVLSIPEMMRLLIDEHQFSWDDAFEVCCQVFSYTNHTLMSEALETWPVDMLGKILPRHLQIIFEINDYFLKTLQEQYPNDTDLLGRASIIDESNGRRVRMAWLAVVVSHKVNGVSELHSNLMVQSLFADFAKIFPGRFTNVTNGVTPRRWLAVANPSLSAVLDEHLGRNWRTDLSLLNELQQHCDFPMVNHAVHQAKLENKKRLAEYIAQQLNVVVNPKALFDVQIKRIHEYKRQLMNVLHVITRYNRIKADPDAKWVPRVNIFGGKAASAYYMAKHIIHLINDVAKVINNDPQIGDKLKVVFIPNYSVSLAQLIIPAADLSEQISLAGTEASGTSNMKFALNGALTIGTLDGANVEMLDHVGADNIFIFGNTAEEVEELRRQGYKPREYYEKDEELHQVLTQIGSGVFSPEDPGRYRDLVDSLINFGDHYQVLADYRSYVDCQDKVDELYELQEEWTAKAMLNIANMGYFSSDRTIKEYADHIWHIDPVRL [P0AC86] | 6.11 ± 0.49 h | 3.18 ± 0.28 h | 10.1 ± 0.57 h | 5.45 ± 0.2 h | 5.71 ± 0.2 h | 5.65 ± 0.26 h | 5.54 ± 0.24 h | 5.27 ± 0.13 h | 5.448 ± 0.0098 h | 10.1 ± 0.65 h | 6.01 ± 0.15 h | 11.9 ± 1 h
6 | MNAVTVNDDGLVLRLYIQPKASRDSIVGLHGDEVKVAITAPPVDGQANSHLVKFLGKQFRVAKSQVVIEKGELGRHKQIKIINPQQIPPEIAALIN | 5.38 ± 0.38 h | 2.88 ± 0.76 h | 8.02 h | 4 ± 0.27 h | 4.49 h | 5.14 h | 4.22 h | 5.35 h | 3.58 h | 6.29 ± 0.45 h | 4.68 ± 0.4 h | 8.89 ± 0.44 h
7 | MNDLFSLAGKNILITGSAQGIGFLLATGLGKYGAQIIINDITAERAELAVEKLHQEGIQAVAAPFNVTHKHEIDAAVEHIEKDIGPIDVLVNNAGIQRRHPFTEFPEQEWNDVIAVNQTAVFLVSQAVTRHMVERKAGKVINICSMQSELGRDTITPYAASKGAVKMLTRGMCVELARHNIQVNGIAPGYFKTEMTKALVEDEAFTAWLCKRTPAARWGDPQELIGAAVFLSSKASDFVNGHLLFVDGGMLVAV [P0A9P9] | 7.23 h | 2.53 ± 0.38 h | 7.912 ± 0.017 h | 3.69 h | 2.75 h |  | 2.46 h | 4.78 ± 0.49 h | 3.01 h |  | 4.98 ± 0.91 h | 6.82 ± 0.6 h
